{"source": "paper PMC7460673", "about": "“Biochemical Characterization and Crystal Structure of a Novel NAD^+-Dependent Isocitrate Dehydrogenase from Phaeodactylum tricornutum” (International Journal of Molecular Sciences, 2020)", "key": {"[1]": {"biological_target": "T1, PtIDH1 (Phaeodactylum tricornutum, UniProt B7G620)", "T1 construct": "gene IDH1; hexamer also seen; C-terminal EF-hand domain", "experiment": "spectrophotometric NADH formation at […] nm", "format": "biochemical", "conditions": "read-out: Relative Activity (%) / PtIDH1"}, "[2]": {"biological_target": "T1, PtIDH1", "experiment": "spectrophotometric NADH formation at […] nm", "format": "biochemical"}, "[3]": {"biological_target": "Phaeodactylum tricornutum isocitrate dehydrogenase 1, mature (without mitochondrial-targeting peptide) (Phaeodactylum tricornutum)", "experiment": "SEC; Superdex 200 10/300 column calibrated with five standard proteins, 0.5 mL/min; 20 mM Tris, 300 mM NaCl, 5% glycerol, pH 7.5"}, "[4]": {"substrate": "O=C(O)CC(C(=O)O)C(O)C(=O)O", "experiment": "purified protein", "format": "biochemical, Phaeodactylum tricornutum", "conditions": "2 mM Mn2+, NAD+, 50 mM Tris pH 8.0, 25 °C, varied as DL-isocitrate, cooperative, nH 1.43"}, "[5]": {"substrate": "NC(=O)c1ccc[n+]([C@@H]2O[C@H](COP(=O)([O-])OP(=O)(O)OC[C@H]3O[C@@H](n4cnc5c(N)ncnc54)[C@H](O)[C@@H]3O)[C@@H](O)[C@H]2O)c1", "experiment": "purified protein", "format": "biochemical, Phaeodactylum tricornutum", "conditions": "2 mM Mn2+, DL-isocitrate, 50 mM Tris pH 8.0, 25 °C, varied: cofactor"}}, "note": "“And” between values parts separate entries of the source, which are not always exact repeats. Equal values may be shown once.", "data": [{"molecule": "Nc1ncnc2c1ncn2[C@@H]1O[C@H](COP(=O)(O)OP(=O)(O)O)[C@@H](O)[C@H]1O", "note": "[ADP]", "values": [{"measurement": "activity at 1000 µM", "setting": "[1]", "result": "86.63 ± 0.2", "unit": "%"}]}, {"molecule": "Nc1ncnc2c1ncn2[C@@H]1O[C@H](COP(=O)(O)OP(=O)(O)OP(=O)(O)O)[C@@H](O)[C@H]1O", "note": "[ATP]", "values": [{"measurement": "activity at 1000 µM", "setting": "[1]", "result": "88.7 ± 0.8", "unit": "%"}]}, {"molecule": "NC(=O)C1=CN([C@@H]2O[C@H](COP(=O)(O)OP(=O)(O)OC[C@H]3O[C@@H](n4cnc5c(N)ncnc54)[C@H](O)[C@@H]3O)[C@@H](O)[C@H]2O)C=CC1", "note": "[NADH]", "values": [{"measurement": "Ki", "setting": "[2]", "result": "450 ± 80", "unit": "µM"}]}, {"molecule": "Phaeodactylum tricornutum isocitrate dehydrogenase 1, mature (without mitochondrial-targeting peptide) (enzyme)", "values": [{"measurement": "stoichiometry N", "setting": "[3]", "result": "2 and 6"}]}, {"molecule": "PtIDH1 (Phaeodactylum tricornutum CCAP 1055/1) (protein, hexamer also seen; C-terminal EF-hand domain) MLSVENKVVAPPMVYIAGEEMTRYACDLVVKSWLEPYFDLSQWEYFDLSCVNRDNTNDQVLRDAVTAGQRIGAIFKEPTITPSAIQKKAFGLKNSLGSPNGAMRAGWNGITISRDTIHIDGIELGYKRPVFFERHAVGGEYGAGWSKVGRGTLLTTYLPSDGRDPFVVDKRDLTDQHNVVVTYHNPYDNVEPLAHLFFQRCLDANITPYVVTKKTVFKWQEGFWAVMKDVFDEHYKSRFEEKGLLQACGGDLQHLISDAATMQLIRWTDGGFGMAAHNYDGDMLTDQIAQVHRSPGFITSNLVGKAPDGSLIKEFEASHGTVSDLWNDHLAGKETSLNPLGLVEAIVGALQHAAVLDAEKNPDDEHKVKARDQIFNFTTTLRTAMHNTFRYGQGTRDMSGPSGYTTEDFVRKVAWRLQRYLDAQYDEAPPPQLGEPSRKLRRNYDIDEEAINGLFQKYDKNGDGFIDFEEFTRMLVKMNLAPLLTKKEKEKKPDV", "values": [{"measurement": "K0.5", "setting": "[4]", "result": "84.9 ± 5.2", "unit": "µM"}, {"measurement": "Km", "setting": "[5]", "result": "1132.5 ± 23.3", "unit": "µM"}, {"measurement": "kcat", "setting": "[5]", "result": "180.5 ± 6.8", "unit": "s⁻¹"}, {"measurement": "kcat/Km", "setting": "[5]", "result": 160000, "unit": "M⁻¹ s⁻¹"}]}]}
